The DeepSol protein solubility set

assay: soluble on expression in E. coli; label from the status in PepcDB or PDB records

**Q.** For “MAVIYYDKDADLNLIKDKKIAIIGYGSQGHAHALNLKDSGLNVVVGLREGSKSWKKAEEQGLTVKTIEEAAKEADIIMILIPDEHQPEIYKKYIEKHLTEGKMLMFAHGFNIHYHQIIPPKNVDVTMIAPKSPGHIVRREYVEGRGVPALVAVYQDYTGKAKDIALAYAKGIGVTRAGVIETTFKEETETDLFGEQAVLCGGVTALIKAGFETLVDAGYQPEIAYFECLNELKLIVDLIYEGGLSFMRYSVSNTAEYGDYISQEKIVTKEVRENMKQMLKDIQTGKFAKDWILENQAGRPYFYTMRKKESEHLIEKVGKELRKMMPWLKERNVDEE”, which “soluble on expression in E. coli” value is on record?
**A.** soluble

**Q.** For “MAVPQLYYFTIRGFGEYIRLLFLDNGIKFEDIRFDYEGNEWQEFKKGMLLGQLPCLKVDGQEIVQTGAIMRHLGRVHGLNGSNEQEATFLDMFFEGVRDVRMKYVRYIYYDEGTREDCVNKTIPEALVKLEELFKAHSGDFIIGNKISYADYILFEELDVYHVLDANILDKFPTLKSFWERMWKRPNLNAYLEKRKADKVWINAIEKGMN”, which “soluble on expression in E. coli” value is on record?
**A.** soluble

**Q.** For “MAVSLSKGGNVSLTKEAPGLTAVTVGLGWDVRTTTGTDFDLDASAIAVNPTGKVYSDAHFVFFNNKQTPDQTIVHTGDNRTGEGAGDDEAINVNLAGLPADVDKIVFPVSIYDAENRSQNFGQVRNAYIRIVNQAGGAEIARYDLSEDAATETAMVFGELYRNGAEWKFRAVGQGYASGLVGIAQDFGVNV”, which “soluble on expression in E. coli” value is on record?
**A.** not soluble

**Q.** Which “soluble on expression in E. coli” value does the source give for “MAVTWAVSDGRAGNARQAEALARALHPDTVHALHLQARAPWRWAAPRRLPGANSAFGPAFAAQLQQPPGLVIGCGRQAALATRLLRARGSVAVQILDPRLDRRQWDLVVVPEHDALRGENVLTLLGSLHPVDDAWLAAGRAAFPAVGALPGPRVALLIGGPTTQVPWTLQALAAQCNAVQAQVRAAGGSLLITASRRTPPEVVALLRTLQQGNPGLLWCDARDGANPYAGLLGWADAIVASADSVNLLSEACATPVPVVAACAEFARGRVGAYVQALQQRQRLCAADEVLATTAAMTPVRETERIAAQVRMRLGLLEHHHHHH” here?
**A.** soluble

**Q.** Which “soluble on expression in E. coli” value does the source give for “MAVVMNWNNFSTNWDLKLLSLILAVIVWGGVSGGRTAELELTVPLELRNLPPGFSVASAVPTEASVTVAGPKILLLKLRSERIIIPLDARGVGEGTTLFTGLERRLGLPREATITRLFPATVEVRLIRSKTVQKPLEHHHHHH” here?
**A.** not soluble

**Q.** For “MAVVRRAVAARGLQMIAKPLTVVPGFDVWPGLLDISAQRALVEAVLAGAEQAPFSNYRTAYGKPMSVAMTALGSLGWTSDARGYRYVDRHPETGRPWPDMPPALLDLWTVLGDPETPPDSCLVNLYRDGARMGLHQDRDEADPRFPVLSISLGDTAVFRIGGVNRKDPTRSLRLASGDVCRLLGPARLAFHGVDRILPGSSSLVPGGGRINLTLRRARTALEHHHHHH”, which “soluble on expression in E. coli” value is on record?
**A.** not soluble

**Q.** Which “soluble on expression in E. coli” value does the source give for “MAYSLTRKLLKDWKYFMRHPEKTQGLFHVRPHDSDLHLWHVVMYEPRTSLEVYLLLYIGGNDQDPYIIMKCLSPNCCFPINRTVSMTHLNYLLLKDLGLQDLLFHIWQPLFHIQATEDLQYSPSTVKFNRAWNRIIYKDFKSYFPELIGTLQPGDYSIVKSYSKNHNISNSNGGSVNEFMSSYNAQSHTFHAQDNSKNPYTNSSIGKSSMLSTLNNNNVNKRTHDYNAIDFMTKNLLACDDDSIHPVVSSKRSRTLACPDETNDNRGSEHYTKRKKI” here?
**A.** soluble

**Q.** For “MAYWLMKSEPDELSIEALARLGEARWDGVRNYQARNFLRAMSVGDEFFFYHSSCPQPGIAGIARITRAAYPDPTALDPESHYHDAKATTDKNPWSAVDVAHVQTFPRVLELGRLKQQAGLVELPLVQKGSRLSVMPVTPEQWAVIVALRLEHHHHHH”, which “soluble on expression in E. coli” value is on record?
**A.** soluble

**Q.** For “MCDISTEDQLLEFARKAAESGDQTQTFEFKKHIGFLIRHLNVFPQPYNTLETSRNTIFLFAISSLDLLGELDNLLTPERRQAYIDWIYGLQFTNGNVCGFRGSHSCENSGYDEANLAQTYSALLSLAILGDDLKKVDRKAILKTVKTAQRDNGCFWSQGVGSESDMRFVFCAVAISHILDGDKEQTIDWTKLAGFLRQSLNIDGGIGQAPGDESHGGSTFCAIASLALSNRLWTEEVLTRRDIDRLIRWAIQKQDIGFHGRAHKPDDSCYAFWIGATLKILNAYHLVSKQHLREFLMICQHPHIGGFCKYPEPGGYSDILHTYFSIAALSLLGEPAVNPVHPSLNVSMRVAERIARLQFD”, which “soluble on expression in E. coli” value is on record?
**A.** not soluble
